Measured values from patent US10646600B2, “HER2 polypeptides useful for imaging and monitoring tumors and cancers” (GE HEALTHCARE LIMITED, priority 2013, dated 2020).
Entries after “also recorded” stand apart in the source; their conditions may differ.

Tests used:
Assay type in all cases: in vivo, mice
SKOV-3 = test: Biodistribution, SKOV-3 tumor
Description: (§1) Mice were sacrificed at different time points by exsanguination.

[1] = Metabolic stability, plasma radio-HPLC; conditions: 3.7 MBq i.v., 10, 30 and 60 minutes post injection
Experimental: At 10, 30 and 60 minute post injection, mice were exsanguinated via cardiac puncture and blood removed for centrifugation. Plasma was obtained and kept on ice for analysis of radioactive metabolites by HPLC.

MDA-MB-361 xenografts = test: PET-CT imaging and kinetic modeling, MDA-MB-361 xenografts
Description: (§2) Mice were anesthetized through isoflurane inhalation and scanned on a dedicated small animal PET-CT scanner (Siemens Multimodality Inveon, Erlangen, Germany). Low dose CT scans were first acquired (80 kVp, 0.5 mA, 220 degree rotation, 600 ms per degree exposure time, 80 μm reconstruction pixel size) for PET attenuation correction and to obtain an anatomical reference. PET images were acquired following a bolus i.v. injection of approximately 3.7 MBq [^18F]GE-226 in the tail vein. Dynamic emission scans were acquired in list mode format over 60 minutes. The acquired data were sorted into 0.5-mm sinogram bins and 19 time frames for image reconstruction by filtered back projection (4×15 seconds and 4×60 seconds followed by 11×300 seconds). The Siemens Inveon Research Workplace software was used for visualization of radiotracer uptake. 30 to 60-minute cumulative images of the dynamic data were employed to define 3-dimensional (3D) regions of interest (ROI). […] The count densities were averaged for all ROIs at each time point to obtain time versus radioactivity curves (TAC). Tumor TACs were normalized to injected dose measured by a VDC-304 dose calibrator (Veenstra Instruments, Joure, Netherlands) and normalized uptake was expressed as percentage injected dose per mL tissue (NUV; % ID/mL). […]

MCF7-HER2 xenografts = test: PET-CT imaging and kinetic modeling, MCF7-HER2 xenografts
Description: as §2

Biodistribution, tissues = test: Biodistribution, tissues
Description: as §1

[2] = two-tissue irreversible compartmental model

Substance: [^18F]GE-226: HER2-binding 18F-radiolabelled Affibody molecule ZHER2:2891
- Tissue uptake, SKOV-3 (SKOV-3; 60 min): 17.35 ± 0.83 % ID/g tissue
- tumor/muscle ratio (SKOV-3; SKOV-3 tumor, 1 h): ~60
- metabolic stability [1]: metabolically stable
- metabolic stability ([1]; listed as tracer): stable in vivo
- NUV60 (MDA-MB-361 xenografts; PET, 60 minutes): 18.2±3.4 % ID/mL
- Ki (net irreversible uptake rate) (MDA-MB-361 xenografts; [2]): 0.025±0.0052 mL/cm^3/min
- NUV60 (MCF7-HER2 xenografts; PET, 60 minutes): 10.9±1.5 % ID/mL
- Ki (net irreversible uptake rate) (MCF7-HER2 xenografts; [2]): 0.015±0.0035 mL/cm^3/min
- Tissue uptake, Blood (Biodistribution, tissues; 5 min): 0.82 ± 0.83 % ID/g tissue
- Tissue uptake, Bone (Biodistribution, tissues; 5 min): 1.20 ± 1.08 % ID/g tissue
- Tissue uptake, Brain (Biodistribution, tissues; 5 min): 0.33 ± 0.35 % ID/g tissue
- Tissue uptake, Caecum empty (Biodistribution, tissues; 5 min): 3.24 ± 3.76 % ID/g tissue
- Tissue uptake, Caecum full (Biodistribution, tissues; 5 min): 0.97 ± 1.09 % ID/g tissue
- Tissue uptake, Colon empty (Biodistribution, tissues; 5 min): 2.68 ± 2.44 % ID/g tissue
- Tissue uptake, Colon full (Biodistribution, tissues; 5 min): 2.40 ± 2.53 % ID/g tissue
- Tissue uptake, Duodenum empty (Biodistribution, tissues; 5 min): 3.21 ± 3.50 % ID/g tissue
- Tissue uptake, Duodenum full (Biodistribution, tissues; 5 min): 2.55 ± 2.17 % ID/g tissue
- Tissue uptake, Gallbladder (Biodistribution, tissues; 5 min): 3.22 ± 3.29 % ID/g tissue
- Tissue uptake, Heart (Biodistribution, tissues; 5 min): 3.10 ± 2.83 % ID/g tissue
- Tissue uptake, Jejunum empty (Biodistribution, tissues; 5 min): 2.48 ± 2.81 % ID/g tissue
- Tissue uptake, Jejunum full (Biodistribution, tissues; 5 min): 1.68 ± 1.38 % ID/g tissue
- Tissue uptake, Kidney (Biodistribution, tissues; 5 min): 15.02 ± 6.99 % ID/g tissue
- Tissue uptake, Liver (Biodistribution, tissues; 5 min): 2.90 ± 2.96 % ID/g tissue
- Tissue uptake, Lung (Biodistribution, tissues; 5 min): 3.90 ± 3.84 % ID/g tissue
- Tissue uptake, Muscle (Biodistribution, tissues; 5 min): 0.88 ± 0.81 % ID/g tissue
- Tissue uptake, Plasma (Biodistribution, tissues; 5 min): 12.71 ± 14.90 % ID/g tissue
- Tissue uptake, Spleen (Biodistribution, tissues; 5 min): 3.18 ± 2.66 % ID/g tissue
- Tissue uptake, Stomach empty (Biodistribution, tissues; 5 min): 2.02 ± 1.62 % ID/g tissue
- Tissue uptake, Stomach full (Biodistribution, tissues; 5 min): 1.47 ± 1.85 % ID/g tissue
- Tissue uptake, Urine (Biodistribution, tissues; 5 min): 148.33 ± 127.65 % ID/g tissue
- Tissue uptake, Blood (Biodistribution, tissues; 15 min): 2.00 ± 0.75 % ID/g tissue
- Tissue uptake, Bone (Biodistribution, tissues; 15 min): 3.05 ± 0.88 % ID/g tissue
- Tissue uptake, Brain (Biodistribution, tissues; 15 min): 0.34 ± 0.11 % ID/g tissue
- Tissue uptake, Caecum empty (Biodistribution, tissues; 15 min): 4.94 ± 2.84 % ID/g tissue
- Tissue uptake, Caecum full (Biodistribution, tissues; 15 min): 1.68 ± 0.85 % ID/g tissue
- Tissue uptake, Colon empty (Biodistribution, tissues; 15 min): 5.78 ± 2.99 % ID/g tissue
- Tissue uptake, Colon full (Biodistribution, tissues; 15 min): 3.43 ± 1.89 % ID/g tissue
- Tissue uptake, Duodenum empty (Biodistribution, tissues; 15 min): 5.16 ± 2.36 % ID/g tissue
- Tissue uptake, Duodenum full (Biodistribution, tissues; 15 min): 4.07 ± 1.48 % ID/g tissue
- Tissue uptake, Gallbladder (Biodistribution, tissues; 15 min): 5.10 ± 1.77 % ID/g tissue
- Tissue uptake, Heart (Biodistribution, tissues; 15 min): 3.52 ± 1.19 % ID/g tissue
- Tissue uptake, Jejunum empty (Biodistribution, tissues; 15 min): 4.92 ± 1.33 % ID/g tissue
- Tissue uptake, Jejunum full (Biodistribution, tissues; 15 min): 2.71 ± 1.01 % ID/g tissue
- Tissue uptake, Kidney (Biodistribution, tissues; 15 min): 65.82 ± 18.48 % ID/g tissue
- Tissue uptake, Liver (Biodistribution, tissues; 15 min): 4.58 ± 1.77 % ID/g tissue
- Tissue uptake, Lung (Biodistribution, tissues; 15 min): 5.99 ± 2.10 % ID/g tissue
- Tissue uptake, Muscle (Biodistribution, tissues; 15 min): 2.05 ± 0.86 % ID/g tissue
- Tissue uptake, Plasma (Biodistribution, tissues; 15 min): 9.41 ± 3.75 % ID/g tissue
- Tissue uptake, Spleen (Biodistribution, tissues; 15 min): 3.94 ± 3.24 % ID/g tissue
- Tissue uptake, Stomach empty (Biodistribution, tissues; 15 min): 3.75 ± 1.38 % ID/g tissue
- Tissue uptake, Stomach full (Biodistribution, tissues; 15 min): 2.68 ± 1.04 % ID/g tissue
- Tissue uptake, Urine (Biodistribution, tissues; 15 min): 283.73 ± 243.00 % ID/g tissue
- Tissue uptake, Blood (Biodistribution, tissues; 30 min): 0.53 ± 0.35 % ID/g tissue
- Tissue uptake, Bone (Biodistribution, tissues; 30 min): 1.59 ± 0.94 % ID/g tissue
- Tissue uptake, Brain (Biodistribution, tissues; 30 min): 0.13 ± 0.08 % ID/g tissue
- Tissue uptake, Caecum empty (Biodistribution, tissues; 30 min): 1.92 ± 0.89 % ID/g tissue
- Tissue uptake, Caecum full (Biodistribution, tissues; 30 min): 0.60 ± 0.27 % ID/g tissue
- Tissue uptake, Colon empty (Biodistribution, tissues; 30 min): 1.80 ± 0.94 % ID/g tissue
- Tissue uptake, Colon full (Biodistribution, tissues; 30 min): 1.00 ± 0.59 % ID/g tissue
- Tissue uptake, Duodenum empty (Biodistribution, tissues; 30 min): 2.91 ± 1.27 % ID/g tissue
- Tissue uptake, Duodenum full (Biodistribution, tissues; 30 min): 2.87 ± 1.18 % ID/g tissue
- Tissue uptake, Gallbladder (Biodistribution, tissues; 30 min): 2.74 ± 1.06 % ID/g tissue
- Tissue uptake, Heart (Biodistribution, tissues; 30 min): 1.27 ± 0.60 % ID/g tissue
- Tissue uptake, Jejunum empty (Biodistribution, tissues; 30 min): 1.87 ± 1.12 % ID/g tissue
- Tissue uptake, Jejunum full (Biodistribution, tissues; 30 min): 1.73 ± 1.25 % ID/g tissue
- Tissue uptake, Kidney (Biodistribution, tissues; 30 min): 23.54 ± 11.70 % ID/g tissue
- Tissue uptake, Liver (Biodistribution, tissues; 30 min): 2.27 ± 1.23 % ID/g tissue
- Tissue uptake, Lung (Biodistribution, tissues; 30 min): 3.15 ± 1.84 % ID/g tissue
- Tissue uptake, Muscle (Biodistribution, tissues; 30 min): 0.78 ± 0.48 % ID/g tissue
- Tissue uptake, Plasma (Biodistribution, tissues; 30 min): 4.10 ± 2.23 % ID/g tissue
- Tissue uptake, Spleen (Biodistribution, tissues; 30 min): 1.71 ± 0.90 % ID/g tissue
- Tissue uptake, Stomach empty (Biodistribution, tissues; 30 min): 1.56 ± 0.86 % ID/g tissue
- Tissue uptake, Stomach full (Biodistribution, tissues; 30 min): 1.28 ± 0.92 % ID/g tissue
- Tissue uptake, Urine (Biodistribution, tissues; 30 min): 438.65 ± 219.01 % ID/g tissue
- Tissue uptake, Blood (Biodistribution, tissues; 60 min): 0.32 ± 0.26 % ID/g tissue
- Tissue uptake, Bone (Biodistribution, tissues; 60 min): 0.68 ± 0.40 % ID/g tissue
- Tissue uptake, Brain (Biodistribution, tissues; 60 min): 0.10 ± 0.07 % ID/g tissue
- Tissue uptake, Caecum empty (Biodistribution, tissues; 60 min): 0.87 ± 0.53 % ID/g tissue
- Tissue uptake, Caecum full (Biodistribution, tissues; 60 min): 0.36 ± 0.22 % ID/g tissue
- Tissue uptake, Colon empty (Biodistribution, tissues; 60 min): 1.25 ± 0.94 % ID/g tissue
- Tissue uptake, Colon full (Biodistribution, tissues; 60 min): 0.84 ± 0.59 % ID/g tissue
- Tissue uptake, Duodenum empty (Biodistribution, tissues; 60 min): 2.29 ± 2.29 % ID/g tissue
- Tissue uptake, Duodenum full (Biodistribution, tissues; 60 min): 1.53 ± 0.59 % ID/g tissue
- Tissue uptake, Gallbladder (Biodistribution, tissues; 60 min): 3.92 ± 3.29 % ID/g tissue
- Tissue uptake, Heart (Biodistribution, tissues; 60 min): 0.64 ± 0.40 % ID/g tissue
- Tissue uptake, Jejunum empty (Biodistribution, tissues; 60 min): 0.86 ± 0.46 % ID/g tissue
- Tissue uptake, Jejunum full (Biodistribution, tissues; 60 min): 0.99 ± 0.39 % ID/g tissue
- Tissue uptake, Kidney (Biodistribution, tissues; 60 min): 11.94 ± 10.30 % ID/g tissue
- Tissue uptake, Liver (Biodistribution, tissues; 60 min): 1.64 ± 1.49 % ID/g tissue
- Tissue uptake, Lung (Biodistribution, tissues; 60 min): 1.81 ± 1.32 % ID/g tissue
- Tissue uptake, Muscle (Biodistribution, tissues; 60 min): 0.50 ± 0.45 % ID/g tissue
- Tissue uptake, Plasma (Biodistribution, tissues; 60 min): 1.76 ± 1.06 % ID/g tissue
- Tissue uptake, Spleen (Biodistribution, tissues; 60 min): 0.88 ± 0.56 % ID/g tissue
- Tissue uptake, Stomach empty (Biodistribution, tissues; 60 min): 0.86 ± 0.72 % ID/g tissue
- Tissue uptake, Stomach full (Biodistribution, tissues; 60 min): 0.53 ± 0.29 % ID/g tissue
- Tissue uptake, Urine (Biodistribution, tissues; 60 min): 535.62 ± 303.04 % ID/g tissue
- kidney radioactivity levels versus tumors (Biodistribution, tissues; 60 min): comparable to levels in tumors
- excretion / clearance (Biodistribution, tissues; mouse, in vivo): predominately and rapidly excreted via the renal route; also recorded: rapid renal clearance
- uptake in other organs, including the liver (Biodistribution, tissues; mouse, in vivo): negligible
